Source: US20250186594A1

Key:
[1] = molecular target: IL-18 variant SEQ ID NO: 59 with 10 kDa PEG (E6K, C38A, K53A, C68-10kPEG) (human) (UniProt Q14116); assay: cell-based or functional assay
[2] = molecular target: IL-18 variant SEQ ID NO: 227 (V11I, C38A, S55T, C76A, C127A) (human) (UniProt Q14116); assay: cell-based or functional assay
[3] = molecular target: IL-18 variant SEQ ID NO: 6 with 30 kDa PEG (E6K, V11I, C38A, K53A, T63A, C68A, C76A, C127A, D98C-30kPEG) (human) (UniProt Q14116); assay: cell-based or functional assay
[4] = molecular target: IL-18 variant SEQ ID NO: 61 (E6K, C38A, K53A, C76A) (human) (UniProt Q14116); assay: cell-based or functional assay
IL-18 variant SEQ ID NO: 61 (E6K, C38A, K53A, C76A) (human), sequence (Q14116 other isoform, or with tags, fused parts or gaps C38A K53A C76A C38A K53A C76A): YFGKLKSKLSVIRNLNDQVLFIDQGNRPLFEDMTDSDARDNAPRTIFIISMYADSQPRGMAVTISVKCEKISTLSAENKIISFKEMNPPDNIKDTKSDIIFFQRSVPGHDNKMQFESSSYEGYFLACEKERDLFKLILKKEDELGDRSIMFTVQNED

[5] = molecular target: IL-18 variant SEQ ID NO: 212 (V11I, D35A, C38A, K53A, C76A, C127A) (human) (UniProt Q14116); assay: cell-based or functional assay
IL-18 variant SEQ ID NO: 212 (V11I, D35A, C38A, K53A, C76A, C127A) (human), sequence (Q14116 37-193 V47I/D71A/C74A/K89A/C112A/C163A): as the sequence (Q14116 other isoform, or with tags, fused parts or gaps C38A K53A C76A C38A K53A C76A) above, with K6E, V11I, D35A, C127A counted along it

[6] = molecular target: IL-18 variant SEQ ID NO: 30 (E6K, V11I, C38A, K53A, T63A, C76A, C127A) (human) (UniProt Q14116); assay: cell-based or functional assay
IL-18 variant SEQ ID NO: 30 (E6K, V11I, C38A, K53A, T63A, C76A, C127A) (human), sequence (Q14116 other isoform, or with tags, fused parts or gaps with the stated changes): as the sequence (Q14116 other isoform, or with tags, fused parts or gaps C38A K53A C76A C38A K53A C76A) above, with V11I, T63A, C127A counted along it

[7] = molecular target: IL-18 variant SEQ ID NO: 8 (E6K, V11I, C38A, K53A, T63A, C68A, C76A, T95C, C127A) (human) (UniProt Q14116); assay: cell-based or functional assay
IL-18 variant SEQ ID NO: 8 (E6K, V11I, C38A, K53A, T63A, C68A, C76A, T95C, C127A) (human), sequence (Q14116 other isoform, or with tags, fused parts or gaps with the stated changes): as the sequence (Q14116 other isoform, or with tags, fused parts or gaps C38A K53A C76A C38A K53A C76A) above, with V11I, T63A, C68A, T95C, C127A counted along it

[8] = molecular target: IL-18 variant SEQ ID NO: 30 with 10 kDa PEG (E6K, V11I, C38A, K53A, T63A, C76A, C127A, C68-10kPEG) (human) (UniProt Q14116); assay: cell-based or functional assay
IL-18 variant SEQ ID NO: 30 with 10 kDa PEG (E6K, V11I, C38A, K53A, T63A, C76A, C127A, C68-10kPEG) (human), sequence (Q14116 other isoform, or with tags, fused parts or gaps with the stated changes): as the sequence (Q14116 other isoform, or with tags, fused parts or gaps C38A K53A C76A C38A K53A C76A) above, with V11I, T63A, C127A counted along it

[9] = molecular target: IL-18 variant SEQ ID NO: 61 with 30 kDa PEG (E6K, C38A, K53A, C76A, C68-30kPEG) (human) (UniProt Q14116); assay: cell-based or functional assay
IL-18 variant SEQ ID NO: 61 with 30 kDa PEG (E6K, C38A, K53A, C76A, C68-30kPEG) (human), sequence (Q14116 other isoform, or with tags, fused parts or gaps C38A K53A C76A C38A K53A C76A): as the sequence (Q14116 other isoform, or with tags, fused parts or gaps C38A K53A C76A C38A K53A C76A) above

[10] = molecular target: IL-18 variant SEQ ID NO: 63 (E6K, C38A, K53A, C76A, C127A) (human) (UniProt Q14116); assay: cell-based or functional assay
IL-18 variant SEQ ID NO: 63 (E6K, C38A, K53A, C76A, C127A) (human), sequence (Q14116 other isoform, or with tags, fused parts or gaps C38A K53A C76A C127A C38A K53A C76A C127A): as the sequence (Q14116 other isoform, or with tags, fused parts or gaps C38A K53A C76A C38A K53A C76A) above, with C127A counted along it

[11] = molecular target: Native IL-18 wild-type (SEQ ID NO: 1, native sequence) (human) (UniProt Q14116); assay: cell-based or functional assay
Native IL-18 wild-type (SEQ ID NO: 1, native sequence) (human), sequence (Q14116 37-193): as the sequence (Q14116 other isoform, or with tags, fused parts or gaps C38A K53A C76A C38A K53A C76A) above, with K6E, A38C, A53K, A76C counted along it

[12] = molecular target: IL-18 variant SEQ ID NO: 207 (V11I, C38A, M51G, K53A, C76A, C127A) (human) (UniProt Q14116); assay: cell-based or functional assay
IL-18 variant SEQ ID NO: 207 (V11I, C38A, M51G, K53A, C76A, C127A) (human), sequence (Q14116 37-193 V47I/C74A/M87G/K89A/C112A/C163A): as the sequence (Q14116 other isoform, or with tags, fused parts or gaps C38A K53A C76A C38A K53A C76A) above, with K6E, V11I, M51G, C127A counted along it

[13] = molecular target: IL-18 variant SEQ ID NO: 11 (E6K, V11I, C38A, K53A, C76A, C127A) (human) (UniProt Q14116); assay: cell-based or functional assay
IL-18 variant SEQ ID NO: 11 (E6K, V11I, C38A, K53A, C76A, C127A) (human), sequence (Q14116 other isoform, or with tags, fused parts or gaps V11I C38A K53A C76A C127A V11I C38A K53A C76A C127A): as the sequence (Q14116 other isoform, or with tags, fused parts or gaps C38A K53A C76A C38A K53A C76A) above, with V11I, C127A counted along it

[14] = molecular target: IL-18 variant SEQ ID NO: 9 (E6K, C38A, K53A, C68A, D98C) (human) (UniProt Q14116); assay: cell-based or functional assay
IL-18 variant SEQ ID NO: 9 (E6K, C38A, K53A, C68A, D98C) (human), sequence (Q14116 other isoform, or with tags, fused parts or gaps C38A K53A C68A D98C C38A K53A C68A D98C): as the sequence (Q14116 other isoform, or with tags, fused parts or gaps C38A K53A C76A C38A K53A C76A) above, with C68A, A76C, D98C counted along it

[15] = molecular target: IL-18 variant SEQ ID NO: 28 with 30 kDa PEG (E6K, C38A, K53A, T63A, C76A, C127A, C68-30kPEG) (human) (UniProt Q14116); assay: cell-based or functional assay
IL-18 variant SEQ ID NO: 28 with 30 kDa PEG (E6K, C38A, K53A, T63A, C76A, C127A, C68-30kPEG) (human), sequence (Q14116 other isoform, or with tags, fused parts or gaps C38A K53A T63A C76A C127A C38A K53A T63A C76A C127A): as the sequence (Q14116 other isoform, or with tags, fused parts or gaps C38A K53A C76A C38A K53A C76A) above, with T63A, C127A counted along it

[16] = molecular target: IL-18 variant SEQ ID NO: 226 (V11I, C38A, S55R, C76A, C127A) (human) (UniProt Q14116); assay: cell-based or functional assay
IL-18 variant SEQ ID NO: 226 (V11I, C38A, S55R, C76A, C127A) (human), sequence (Q14116 37-193 V47I/C74A/S91R/C112A/C163A): as the sequence (Q14116 other isoform, or with tags, fused parts or gaps C38A K53A C76A C38A K53A C76A) above, with K6E, V11I, A53K, S55R, C127A counted along it

[17] = molecular target: IL-18 variant SEQ ID NO: 211 (V11I, T34A, C38A, K53A, C76A, C127A) (human) (UniProt Q14116); assay: cell-based or functional assay
IL-18 variant SEQ ID NO: 211 (V11I, T34A, C38A, K53A, C76A, C127A) (human), sequence (Q14116 37-193 V47I/T70A/C74A/K89A/C112A/C163A): as the sequence (Q14116 other isoform, or with tags, fused parts or gaps C38A K53A C76A C38A K53A C76A) above, with K6E, V11I, T34A, C127A counted along it

[18] = molecular target: IL-18 variant SEQ ID NO: 208 (V11I, C38A, K53A, D54A, C76A, C127A) (human) (UniProt Q14116); assay: cell-based or functional assay
IL-18 variant SEQ ID NO: 208 (V11I, C38A, K53A, D54A, C76A, C127A) (human), sequence (Q14116 37-193 V47I/C74A/K89A/D90A/C112A/C163A): as the sequence (Q14116 other isoform, or with tags, fused parts or gaps C38A K53A C76A C38A K53A C76A) above, with K6E, V11I, D54A, C127A counted along it

[19] = molecular target: IL-18 variant SEQ ID NO: 216 (V11I, C38A, D40A, K53A, C76A, C127A) (human) (UniProt Q14116); assay: cell-based or functional assay
IL-18 variant SEQ ID NO: 216 (V11I, C38A, D40A, K53A, C76A, C127A) (human), sequence (Q14116 37-193 V47I/C74A/D76A/K89A/C112A/C163A): as the sequence (Q14116 other isoform, or with tags, fused parts or gaps C38A K53A C76A C38A K53A C76A) above, with K6E, V11I, D40A, C127A counted along it

[20] = molecular target: IL-18 variant SEQ ID NO: 219 (V11I, C38A, K53A, C76A, G108A, C127A) (human) (UniProt Q14116); assay: cell-based or functional assay
IL-18 variant SEQ ID NO: 219 (V11I, C38A, K53A, C76A, G108A, C127A) (human), sequence (Q14116 37-193 V47I/C74A/K89A/C112A/G144A/C163A): as the sequence (Q14116 other isoform, or with tags, fused parts or gaps C38A K53A C76A C38A K53A C76A) above, with K6E, V11I, G108A, C127A counted along it

[21] = molecular target: IL-18 variant SEQ ID NO: 228 (V11I, C38A, C76A, S105I, C127A) (human) (UniProt Q14116); assay: cell-based or functional assay
IL-18 variant SEQ ID NO: 228 (V11I, C38A, C76A, S105I, C127A) (human), sequence (Q14116 37-193 V47I/C74A/C112A/S141I/C163A): as the sequence (Q14116 other isoform, or with tags, fused parts or gaps C38A K53A C76A C38A K53A C76A) above, with K6E, V11I, A53K, S105I, C127A counted along it

[22] = molecular target: IL-18 variant SEQ ID NO: 60 with 30 kDa PEG (E6K, C38Q, K53A, C68-30kPEG) (human) (UniProt Q14116); assay: cell-based or functional assay
IL-18 variant SEQ ID NO: 60 with 30 kDa PEG (E6K, C38Q, K53A, C68-30kPEG) (human), sequence (Q14116 other isoform, or with tags, fused parts or gaps C38Q K53A C38Q K53A): as the sequence (Q14116 other isoform, or with tags, fused parts or gaps C38A K53A C76A C38A K53A C76A) above, with A38Q, A76C counted along it

[23] = molecular target: IL-18 variant SEQ ID NO: 213 (V11I, S36A, C38A, K53A, C76A, C127A) (human) (UniProt Q14116); assay: cell-based or functional assay
IL-18 variant SEQ ID NO: 213 (V11I, S36A, C38A, K53A, C76A, C127A) (human), sequence (Q14116 37-193 V47I/S72A/C74A/K89A/C112A/C163A): as the sequence (Q14116 other isoform, or with tags, fused parts or gaps C38A K53A C76A C38A K53A C76A) above, with K6E, V11I, S36A, C127A counted along it

[24] = molecular target: IL-18 variant SEQ ID NO: 204 (V11I, C38A, K53A, C76A, C127A) (human) (UniProt Q14116); assay: cell-based or functional assay
IL-18 variant SEQ ID NO: 204 (V11I, C38A, K53A, C76A, C127A) (human), sequence (Q14116 37-193 V47I/C74A/K89A/C112A/C163A): as the sequence (Q14116 other isoform, or with tags, fused parts or gaps C38A K53A C76A C38A K53A C76A) above, with K6E, V11I, C127A counted along it

[25] = molecular target: IL-18 variant SEQ ID NO: 9 with 30 kDa PEG (E6K, C38A, K53A, C68A, D98C-30kPEG) (human) (UniProt Q14116); assay: cell-based or functional assay
IL-18 variant SEQ ID NO: 9 with 30 kDa PEG (E6K, C38A, K53A, C68A, D98C-30kPEG) (human), sequence (Q14116 other isoform, or with tags, fused parts or gaps C38A K53A C68A D98C C38A K53A C68A D98C): as the sequence (Q14116 other isoform, or with tags, fused parts or gaps C38A K53A C76A C38A K53A C76A) above, with C68A, A76C, D98C counted along it

[26] = molecular target: IL-18 variant SEQ ID NO: 62 (E6K, C38A, K53A, C127A) (human) (UniProt Q14116); assay: cell-based or functional assay
IL-18 variant SEQ ID NO: 62 (E6K, C38A, K53A, C127A) (human), sequence (Q14116 other isoform, or with tags, fused parts or gaps C38A K53A C127A C38A K53A C127A): as the sequence (Q14116 other isoform, or with tags, fused parts or gaps C38A K53A C76A C38A K53A C76A) above, with A76C, C127A counted along it

[27] = molecular target: IL-18 variant SEQ ID NO: 4 with 30 kDa PEG (E6K, C38A, K53A, C68A, M86C-30kPEG) (human) (UniProt Q14116); assay: cell-based or functional assay
IL-18 variant SEQ ID NO: 4 with 30 kDa PEG (E6K, C38A, K53A, C68A, M86C-30kPEG) (human), sequence (Q14116 other isoform, or with tags, fused parts or gaps C38A K53A C68A M86C C38A K53A C68A M86C): as the sequence (Q14116 other isoform, or with tags, fused parts or gaps C38A K53A C76A C38A K53A C76A) above, with C68A, A76C, M86C counted along it

[28] = molecular target: IL-18 variant SEQ ID NO: 214 (V11I, D37A, C38A, K53A, C76A, C127A) (human) (UniProt Q14116); assay: cell-based or functional assay
IL-18 variant SEQ ID NO: 214 (V11I, D37A, C38A, K53A, C76A, C127A) (human), sequence (Q14116 37-193 V47I/D73A/C74A/K89A/C112A/C163A): as the sequence (Q14116 other isoform, or with tags, fused parts or gaps C38A K53A C76A C38A K53A C76A) above, with K6E, V11I, D37A, C127A counted along it

[29] = molecular target: IL-18 variant SEQ ID NO: 4 (E6K, C38A, K53A, C68A, M86C) (human) (UniProt Q14116); assay: cell-based or functional assay
IL-18 variant SEQ ID NO: 4 (E6K, C38A, K53A, C68A, M86C) (human), sequence (Q14116 other isoform, or with tags, fused parts or gaps C38A K53A C68A M86C C38A K53A C68A M86C): as the sequence (Q14116 other isoform, or with tags, fused parts or gaps C38A K53A C76A C38A K53A C76A) above, with C68A, A76C, M86C counted along it

[30] = molecular target: Native IL-18 wild-type (SEQ ID NO: 1, native sequence) (human) (UniProt Q14116)

IL-18 variant SEQ ID NO: 59 with 10 kDa PEG (E6K, C38A, K53A, C68-10kPEG) (human), sequence (Q14116 other isoform, or with tags, fused parts or gaps C38A K53A C38A K53A): as the sequence (Q14116 other isoform, or with tags, fused parts or gaps C38A K53A C76A C38A K53A C76A) above, with A76C counted along it
IL-18 variant SEQ ID NO: 227 (V11I, C38A, S55T, C76A, C127A) (human), sequence (Q14116 37-193 V47I/C74A/S91T/C112A/C163A): as the sequence (Q14116 other isoform, or with tags, fused parts or gaps C38A K53A C76A C38A K53A C76A) above, with K6E, V11I, A53K, S55T, C127A counted along it

Fc fused human IL-18BP isoform a (IL-18BPa) (from UniProt O95998 31-194) (Fc fusion)
IC50 of IL-18BPa-Fc on IFNγ secretion, NK-92 [1]: 236 nM | IC50 of IL-18BPa-Fc on IFNγ secretion, NK-92 [2]: 0.44 nM | IC50 of IL-18BPa-Fc on IFNγ secretion, NK-92 [3]: 35.5 nM | IC50 of IL-18BPa-Fc on IFNγ secretion, NK-92 [4]: 779 nM | IC50 of IL-18BPa-Fc on IFNγ secretion, NK-92 [5]: 3.62 nM | IC50 of IL-18BPa-Fc on IFNγ secretion, NK-92 [6]: 488 nM | IC50 of IL-18BPa-Fc on IFNγ secretion, NK-92 [7]: 522 nM | IC50 of IL-18BPa-Fc on IFNγ secretion, NK-92 [8]: 67.1 nM | IC50 of IL-18BPa-Fc on IFNγ secretion, NK-92 [9]: 4.29 nM | IC50 of IL-18BPa-Fc on IFNγ secretion, NK-92 [10]: 286 nM | IC50 of IL-18BPa-Fc on IFNγ secretion, NK-92 [11]: 0.781 nM | IC50 of IL-18BPa-Fc on IFNγ secretion, NK-92 [12]: 733 nM | IC50 of IL-18BPa-Fc on IFNγ secretion, NK-92 [13]: 532 nM | IC50 of IL-18BPa-Fc on IFNγ secretion, NK-92 [14]: 1000 nM | IC50 of IL-18BPa-Fc on IFNγ secretion, NK-92 [15]: 12.2 nM | IC50 of IL-18BPa-Fc on IFNγ secretion, NK-92 [16]: 0.885 nM | IC50 of IL-18BPa-Fc on IFNγ secretion, NK-92 [17]: 21.3 nM | IC50 of IL-18BPa-Fc on IFNγ secretion, NK-92 [18]: 47.6 nM | IC50 of IL-18BPa-Fc on IFNγ secretion, NK-92 [19]: 3.23 nM | IC50 of IL-18BPa-Fc on IFNγ secretion, NK-92 [20]: 3.98 nM | IC50 of IL-18BPa-Fc on IFNγ secretion, NK-92 [21]: 0.809 nM | IC50 of IL-18BPa-Fc on IFNγ secretion, NK-92 [22]: 28.1 nM | IC50 of IL-18BPa-Fc on IFNγ secretion, NK-92 [23]: 7.85 nM | IC50 of IL-18BPa-Fc on IFNγ secretion, NK-92 [24]: 1.62 nM | IC50 of IL-18BPa-Fc on IFNγ secretion, NK-92 [25]: 143 nM | IC50 of IL-18BPa-Fc on IFNγ secretion, NK-92 [26]: 284 nM | IC50 of IL-18BPa-Fc on IFNγ secretion, NK-92 [27]: 126 nM | IC50 of IL-18BPa-Fc on IFNγ secretion, NK-92 [28]: 2.22 nM | IC50 of IL-18BPa-Fc on IFNγ secretion, NK-92 [29]: 1000 nM | IC50 (read off the curve); IFNγ production in the NK-92 assay (IFNg, ng/mL) [30]: 1 nM
